Laboratory results from patent publication US20110142868A1 (CHIRALIX B V, published 2011).
Numbered stars: 1 amine (or outer) side, 2 acyl side, 3 side chain; on linkers, the order of the positions; unused ones are H or OH. Square brackets hold non-standard residues; d marks the D form. Orn(CA) = ornithine chloroamidine, O(CA), N=C(CCl)NCCC[C@H](N[*:1])C(=O)[*:2]

What was measured:
recombinant human PAD4 = recombinant human PAD4 (human, UniProt Q9UM07 1-663); assay: cell-based or functional assay
recombinant human PAD2 = recombinant human PAD2 (human, UniProt Q9Y2J8 1-665); assay: cell-based or functional assay
Chain of recombinant human PAD2 (Q9Y2J8 whole entry): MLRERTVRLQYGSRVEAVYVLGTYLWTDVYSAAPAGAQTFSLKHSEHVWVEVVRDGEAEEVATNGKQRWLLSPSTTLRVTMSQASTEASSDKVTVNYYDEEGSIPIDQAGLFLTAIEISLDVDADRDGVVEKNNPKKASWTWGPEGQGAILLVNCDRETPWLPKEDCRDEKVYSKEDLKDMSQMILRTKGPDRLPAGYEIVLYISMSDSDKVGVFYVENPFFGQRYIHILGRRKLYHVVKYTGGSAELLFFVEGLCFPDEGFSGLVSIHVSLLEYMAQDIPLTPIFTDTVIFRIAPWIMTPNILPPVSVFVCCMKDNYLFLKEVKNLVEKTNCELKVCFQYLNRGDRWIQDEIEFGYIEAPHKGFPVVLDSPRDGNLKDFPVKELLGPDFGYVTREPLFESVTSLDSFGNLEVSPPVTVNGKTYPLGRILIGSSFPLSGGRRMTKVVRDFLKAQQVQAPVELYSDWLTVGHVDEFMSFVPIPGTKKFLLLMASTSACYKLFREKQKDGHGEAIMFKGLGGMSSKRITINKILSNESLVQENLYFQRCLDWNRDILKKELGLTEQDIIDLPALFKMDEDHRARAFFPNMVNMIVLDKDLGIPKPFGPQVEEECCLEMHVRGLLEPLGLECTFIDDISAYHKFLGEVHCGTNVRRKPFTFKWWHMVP

Chain of recombinant human PAD4 (Q9UM07 whole entry): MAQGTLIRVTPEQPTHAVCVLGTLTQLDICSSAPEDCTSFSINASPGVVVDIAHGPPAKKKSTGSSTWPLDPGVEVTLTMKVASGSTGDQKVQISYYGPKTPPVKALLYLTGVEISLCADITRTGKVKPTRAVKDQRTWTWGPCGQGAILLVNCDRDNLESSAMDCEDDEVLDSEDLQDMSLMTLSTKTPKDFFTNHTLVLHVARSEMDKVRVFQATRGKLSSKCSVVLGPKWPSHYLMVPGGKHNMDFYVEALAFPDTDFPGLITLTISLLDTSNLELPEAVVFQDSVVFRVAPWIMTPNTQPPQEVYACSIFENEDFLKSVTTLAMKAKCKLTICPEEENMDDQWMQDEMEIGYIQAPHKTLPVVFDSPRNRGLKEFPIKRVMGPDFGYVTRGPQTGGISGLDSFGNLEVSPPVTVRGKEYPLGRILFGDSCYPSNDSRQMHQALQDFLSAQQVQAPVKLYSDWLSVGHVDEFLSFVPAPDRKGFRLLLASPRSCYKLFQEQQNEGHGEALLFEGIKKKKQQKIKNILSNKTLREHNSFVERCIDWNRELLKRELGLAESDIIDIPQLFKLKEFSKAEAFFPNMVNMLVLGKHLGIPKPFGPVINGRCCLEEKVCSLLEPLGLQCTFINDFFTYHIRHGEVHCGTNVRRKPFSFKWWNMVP

Binder	conversion of 0708-30 by PAD4, 10 µM inhibitor (recombinant human PAD4) [%]	conversion of 0708-30 by PAD4, 50 µM inhibitor (recombinant human PAD4) [%]	conversion of 0708-30 by PAD4, 100 µM inhibitor (recombinant human PAD4) [%]	conversion of 0708-30 by PAD2, 10 µM inhibitor (recombinant human PAD2) [%]	conversion of 0708-30 by PAD2, 50 µM inhibitor (recombinant human PAD2) [%]	conversion of 0708-30 by PAD2, 100 µM inhibitor (recombinant human PAD2) [%]
Ac-FFDSKHFD[Orn(CA)]EWIWSD-NH2 (SMILES CC[C@H](C)[C@H](NC(=O)[C@H](Cc1c[nH]c2ccccc12)NC(=O)[C@H](CCC(=O)O)NC(=O)[C@H](CCCNC(=N)CCl)NC(=O)[C@H](CC(=O)O)NC(=O)[C@H](Cc1ccccc1)NC(=O)[C@H](Cc1c[nH]cn1)NC(=O)[C@H](CCCCN)NC(=O)[C@H](CO)NC(=O)[C@H](CC(=O)O)NC(=O)[C@H](Cc1ccccc1)NC(=O)[C@H](Cc1ccccc1)NC(C)=O)C(=O)N[C@@H](Cc1c[nH]c2ccccc12)C(=O)N[C@@H](CO)C(=O)N[C@@H](CC(=O)O)C(N)=O) [0741-01CA]	63	31	17	69	38	23
Ac-FFDSHKFD[Orn(CA)]DFIYSD-NH2 (SMILES CC[C@H](C)[C@H](NC(=O)[C@H](Cc1ccccc1)NC(=O)[C@H](CC(=O)O)NC(=O)[C@H](CCCNC(=N)CCl)NC(=O)[C@H](CC(=O)O)NC(=O)[C@H](Cc1ccccc1)NC(=O)[C@H](CCCCN)NC(=O)[C@H](Cc1c[nH]cn1)NC(=O)[C@H](CO)NC(=O)[C@H](CC(=O)O)NC(=O)[C@H](Cc1ccccc1)NC(=O)[C@H](Cc1ccccc1)NC(C)=O)C(=O)N[C@@H](Cc1ccc(O)cc1)C(=O)N[C@@H](CO)C(=O)N[C@@H](CC(=O)O)C(N)=O) [0741-03CA]	62	24	14	57	49	23
Ac-FFDSHKLH[Orn(CA)]EWMWSD-NH2 (SMILES CSCC[C@H](NC(=O)[C@H](Cc1c[nH]c2ccccc12)NC(=O)[C@H](CCC(=O)O)NC(=O)[C@H](CCCNC(=N)CCl)NC(=O)[C@H](Cc1c[nH]cn1)NC(=O)[C@H](CC(C)C)NC(=O)[C@H](CCCCN)NC(=O)[C@H](Cc1c[nH]cn1)NC(=O)[C@H](CO)NC(=O)[C@H](CC(=O)O)NC(=O)[C@H](Cc1ccccc1)NC(=O)[C@H](Cc1ccccc1)NC(C)=O)C(=O)N[C@@H](Cc1c[nH]c2ccccc12)C(=O)N[C@@H](CO)C(=O)N[C@@H](CC(=O)O)C(N)=O) [0741-04CA]	68	55	26	69	47	50
Ac-FFDSHKWH[Orn(CA)]DFFYSD-NH2 (SMILES CC(=O)N[C@@H](Cc1ccccc1)C(=O)N[C@@H](Cc1ccccc1)C(=O)N[C@@H](CC(=O)O)C(=O)N[C@@H](CO)C(=O)N[C@@H](Cc1c[nH]cn1)C(=O)N[C@@H](CCCCN)C(=O)N[C@@H](Cc1c[nH]c2ccccc12)C(=O)N[C@@H](Cc1c[nH]cn1)C(=O)N[C@@H](CCCNC(=N)CCl)C(=O)N[C@@H](CC(=O)O)C(=O)N[C@@H](Cc1ccccc1)C(=O)N[C@@H](Cc1ccccc1)C(=O)N[C@@H](Cc1ccc(O)cc1)C(=O)N[C@@H](CO)C(=O)N[C@@H](CC(=O)O)C(N)=O) [0741-02CA]	63	31	19	67	32	18
